Reference: patent US20250346679A1 (INVOX PHARMA, published 2025)
Numbering of substitutions follows the chain as printed.

Columns and labels:
[1] = biological target: mouse CD137, cell-surface (mouse, UniProt P20334 24-256); assay: cell-based or functional assay
[2] = biological target: human PD-L1, cell-surface (human, UniProt Q9NZQ7 19-290); assay: cell-based or functional assay
[3] = biological target: T1, human CD137, cell-surface (human, UniProt Q07011 24-255); assay: cell-based or functional assay
[4] = biological target: T2, cynomolgus CD137, cell-surface (cynomolgus, UniProt Q07011 24-255 (human entry)); assay: flow cytometry on DO11.10.cCD137
T2 construct: also called DO11.10.cCD137; CD137 on cynomolgus T cells
T2 chain: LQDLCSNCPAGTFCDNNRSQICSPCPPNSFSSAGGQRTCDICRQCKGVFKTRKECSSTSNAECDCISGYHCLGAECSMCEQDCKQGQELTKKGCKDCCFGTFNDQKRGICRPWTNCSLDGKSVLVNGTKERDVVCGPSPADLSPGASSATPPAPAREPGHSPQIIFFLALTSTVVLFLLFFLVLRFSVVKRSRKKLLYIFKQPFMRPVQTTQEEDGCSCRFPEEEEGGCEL
Method: (§1) Non-specific binding was also assessed by testing binding to DO11.10 cells lacking CD137 expression.
(§2) Briefly, DO11.10, DO11.10.hCD137 or DO11.10.cCD137 suspensions were prepared in FACS buffer (DPBS containing (Gibco, 14190-094) containing 0.5% BSA (Sigma, A7906)) and seeded at 1×10⁵ cell/well in 100 μl in round bottomed 96-well plates (VWR, 734-1797). […] The washed cells were resuspended in the diluted antibody mixture, incubated at 4° C. for 30 minutes, and then washed once in FACS buffer. […] Dead cells were excluded and the fluorescence in the APC channel (638 nm 660/20) was measured. The geometric mean fluorescence intensity (GMFI) values were plotted vs the log concentration of antibody and the resulting curves were fitted using the log (agonist) vs response equation in GraphPad Prism.

[5] = biological target: T1, human CD137, cell-surface; assay: flow cytometry on DO11.10.hCD137; DO11.10 cells overexpressing human CD137 (DO11.10.hCD137)
Method: as §1, §2

FcgRIIB on CHO cells = biological target: T3, FcgRIIB on CHO cells (UniProt P31994 43-310); assay: flow cytometry on CHO cells over-expressing FcγRIIB, anti-human IgG AF-488 detection
T3 construct: whole, on cells; also called CHO.FcγRIIB
T3 sequence (looked up): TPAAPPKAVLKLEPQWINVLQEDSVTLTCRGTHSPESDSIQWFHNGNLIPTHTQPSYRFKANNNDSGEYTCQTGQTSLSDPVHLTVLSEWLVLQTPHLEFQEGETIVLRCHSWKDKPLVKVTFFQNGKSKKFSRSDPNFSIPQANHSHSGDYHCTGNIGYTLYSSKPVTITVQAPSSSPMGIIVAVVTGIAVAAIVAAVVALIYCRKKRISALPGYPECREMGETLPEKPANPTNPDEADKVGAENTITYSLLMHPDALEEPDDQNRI
From the text: (§3) However, in order to circumnavigate potential off-target effects such as systemic CD137 activation due to crosslinking by Fcγ receptor binding and to decrease the possibility of inducing ADCC of immune cells, for example T cells, that express both targets, it was decided to decrease the Fcγ receptor binding ability of the anti-human CD137/PD-L1 mAb² by introduction of a LALA mutation in the CH2 domain (see Example 3.2 for details on the LALA format).
(§4) Briefly, CHO.FcγRIIA.131H, […], CHO.FcγRIIIA.158F, CHO.FcγRIIIA.158V, CHO.FcγRIIB, or CHO.WT suspensions were prepared in FACS buffer (DPBS containing (Gibco, 14190-094) containing 0.5% BSA (Sigma, A7906)) and seeded at 1×10⁵ cell/well in 100 μl in round bottomed 96-well plates (VWR, 734-1797). […] The washed cells were resuspended in the diluted antibody mixture, incubated at 4° C. for 30 minutes, and then washed once in FACS buffer. […] The geometric mean fluorescence intensity (GMFI) values were plotted vs the log concentration of antibody and the resulting curves were fitted using the log (agonist) vs response equation in GraphPad Prism.

[6] = biological target: T4, FcgRIIA 131H on CHO cells (UniProt P12318 34-317, limits assumed); assay: flow cytometry on CHO cells over-expressing FcγRIIA 131H, anti-human IgG AF-488 detection
T4 construct: whole, on cells; also called CHO.FcγRIIA.131H
T4 sequence (looked up): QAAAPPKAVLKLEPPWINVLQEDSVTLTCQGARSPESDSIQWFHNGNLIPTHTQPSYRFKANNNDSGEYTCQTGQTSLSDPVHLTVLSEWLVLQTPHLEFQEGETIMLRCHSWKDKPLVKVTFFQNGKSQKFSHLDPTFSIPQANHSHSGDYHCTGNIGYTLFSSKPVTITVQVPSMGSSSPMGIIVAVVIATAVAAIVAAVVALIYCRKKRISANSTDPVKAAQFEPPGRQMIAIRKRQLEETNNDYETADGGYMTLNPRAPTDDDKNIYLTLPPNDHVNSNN
From the text: as §3, §4

[7] = biological target: T5, FcgRIIIA 158F on CHO cells (UniProt P08637 17-254, limits assumed); assay: flow cytometry on CHO cells over-expressing FcγRIIIA 158F, anti-human IgG AF-488 detection
T5 construct: whole, on cells; also called CHO.FcγRIIIA.158F
T5 sequence (P08637 17-254 limits assumed): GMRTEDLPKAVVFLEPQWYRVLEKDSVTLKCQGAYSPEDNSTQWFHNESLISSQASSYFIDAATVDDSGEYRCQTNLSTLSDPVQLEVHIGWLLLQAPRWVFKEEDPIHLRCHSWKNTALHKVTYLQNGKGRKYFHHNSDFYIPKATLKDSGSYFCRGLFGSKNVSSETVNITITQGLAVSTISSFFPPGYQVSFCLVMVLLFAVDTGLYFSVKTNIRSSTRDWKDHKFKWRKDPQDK
From the text: as §3, §4

[8] = biological target: T6, FcgRIIIA 158V on CHO cells (UniProt P08637 17-254); assay: flow cytometry on CHO cells over-expressing FcγRIIIA 158V, anti-human IgG AF-488 detection
T6 construct: whole, on cells; also called CHO.FcγRIIIA.158V
T6 sequence (P08637 17-254 F176V limits assumed): as the sequence (P08637 17-254 limits assumed) above, with F160V counted along it
From the text: as §3, §4

hPD-L1-rCD4-His [9] = biological target: T7, hPD-L1-rCD4-His (human); assay: SPR
T7 construct: also called human PD-L1-rCD4-His; hu-PD-L1-rCD4-His
T7 sequence (chain, as listed by the source): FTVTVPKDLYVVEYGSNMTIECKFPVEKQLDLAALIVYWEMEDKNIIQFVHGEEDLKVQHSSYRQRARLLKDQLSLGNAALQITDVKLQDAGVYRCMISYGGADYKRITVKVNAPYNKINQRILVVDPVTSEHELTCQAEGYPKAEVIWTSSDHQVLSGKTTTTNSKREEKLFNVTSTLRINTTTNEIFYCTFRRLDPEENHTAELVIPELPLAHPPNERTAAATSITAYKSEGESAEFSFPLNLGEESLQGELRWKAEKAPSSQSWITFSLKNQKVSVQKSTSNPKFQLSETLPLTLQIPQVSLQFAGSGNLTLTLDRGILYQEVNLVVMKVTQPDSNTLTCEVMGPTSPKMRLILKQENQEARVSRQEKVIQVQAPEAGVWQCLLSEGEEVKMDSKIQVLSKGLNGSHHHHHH

Cyno PD-L1-rCD4-His = biological target: T8, Cyno PD-L1-rCD4-His (cynomolgus, UniProt Q9NZQ7 19-238 (human entry)); assay: SPR
T8 construct: also called cynomolgus PD-L1-rCD4-His; not shown: rat CD4 domains 3 and 4 and His tag
T8 sequence (Q9NZQ7 other isoform, or with tags, fused parts or gaps): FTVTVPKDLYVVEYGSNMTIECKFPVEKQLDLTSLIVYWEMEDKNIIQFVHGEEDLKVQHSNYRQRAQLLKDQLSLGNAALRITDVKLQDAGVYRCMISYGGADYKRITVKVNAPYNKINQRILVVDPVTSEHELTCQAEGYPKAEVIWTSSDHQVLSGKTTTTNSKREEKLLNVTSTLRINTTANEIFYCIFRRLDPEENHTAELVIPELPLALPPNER

hPD-L1-rCD4-His [10] = biological target: T7, hPD-L1-rCD4-His; assay: SPR, culture supernatants

Chain of mouse CD137, cell-surface (P20334 24-256): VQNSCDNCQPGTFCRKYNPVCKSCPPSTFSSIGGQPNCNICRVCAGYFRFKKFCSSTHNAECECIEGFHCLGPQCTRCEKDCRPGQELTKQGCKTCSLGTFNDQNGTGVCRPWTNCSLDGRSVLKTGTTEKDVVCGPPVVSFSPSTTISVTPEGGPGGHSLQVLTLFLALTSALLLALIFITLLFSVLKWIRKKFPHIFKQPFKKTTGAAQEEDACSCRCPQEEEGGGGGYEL
Chain of human PD-L1, cell-surface (Q9NZQ7 19-290): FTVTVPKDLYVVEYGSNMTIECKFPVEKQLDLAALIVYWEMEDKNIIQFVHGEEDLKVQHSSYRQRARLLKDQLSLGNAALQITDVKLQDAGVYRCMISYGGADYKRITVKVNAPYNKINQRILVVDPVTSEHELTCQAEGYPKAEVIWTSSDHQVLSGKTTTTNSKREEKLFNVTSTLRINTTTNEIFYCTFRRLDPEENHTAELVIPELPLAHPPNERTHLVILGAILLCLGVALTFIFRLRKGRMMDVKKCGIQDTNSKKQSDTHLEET

B1: FS22m-063-AA/HeID1.3 (bispecific antibody, human IgG1, kappa, L234A L235A)
heavy: QVQLQESGPGLVRPSQTLSLTCTVSGSTFSGYGVNWVRQPPGRGLEWIGMIWGDGNTDYNSALKSRVTMLVDTSKNQFSLRLSSVTAADTAVYYCARERDYRLDYWGQGSLVTVSSASTKGPSVFPLAPSSKSTSGGTAALGCLVKDYFPEPVTVSWNSGALTSGVHTFPAVLQSSGLYSLSSVVTVPSSSLGTQTYICNVNHKPSNTKVDKKVEPKSCDKTHTCPPCPAPEAAGGPSVFLFPPKPKDTLMISRTPEVTCVVVDVSHEDPEVKFNWYVDGVEVHNAKTKPREEQYNSTYRVVSVLTVLHQDWLNGKEYKCKVSNKALPAPIEKTISKAKGQPREPQVYTLPPSRDEPYWSYVSLTCLVKGFYPSDIAVEWESNGQPENNYKTTPPVLDSDGSFFLYSKLTVMNYRWELGNVFSCSVMHEALHNHYTQKSLSLSPG
light: DIQMTQSPASLSASVGETVTITCRASGNIHNYLAWYQQKQGKSPQLLVYNAKTLADGVPSRFSGSGSGTQYSLKINSLQPEDFGSYYCQHFWSTPRTFGGGTKLEIKRTVAAPSVFIFPPSDEQLKSGTASVVCLLNNFYPREAKVQWKVDNALQSGNSQESVTEQDSKDSTYSLSSTLTLSKADYEKHKVYACEVTHQGLSSPVTKSFNRGEC
- Emax (pg/ml), mIFN-γ release, OT-1 CD8+ T cell activation assay (EC50 n/a) [1]: 3850 pg/mL

B2: G1/280_02_G02 (antibody, human IgG1, V domains shown)
VH: EVQLVQSGAEVKRPGASVKVSCKASGYTFTSYGISWVRQAPGQGLEWMGWISAYNGNTNYAQKLQGRVTMTTDTSTSTAYMELRSLRSDDTAVYYCARDLFPTIFGVSYYYYWGQGTLVTVSS
VL: QSALTQPASVSGSPGQSITISCTGTSSDVGGYNSVSWYQQFPGKAPKLMIFEVTNRPSGVSDRFSGSKSDNTASLTISGLQAEDEAEYYCSSFKRGSTLVVFG
- EC50, luciferase, Jurkat-NFAT PD-1 / PD-L1 cell co-culture assay [2]: 4.2 nM

B3: FS22-172-003-AA/HeID1.3 (bispecific antibody, human IgG1, kappa, L234A L235A)
heavy: QVQLQESGPGLVRPSQTLSLTCTVSGSTFSGYGVNWVRQPPGRGLEWIGMIWGDGNTDYNSALKSRVTMLVDTSKNQFSLRLSSVTAADTAVYYCARERDYRLDYWGQGSLVTVSSASTKGPSVFPLAPSSKSTSGGTAALGCLVKDYFPEPVTVSWNSGALTSGVHTFPAVLQSSGLYSLSSVVTVPSSSLGTQTYICNVNHKPSNTKVDKKVEPKSCDKTHTCPPCPAPEAAGGPSVFLFPPKPKDTLMISRTPEVTCVVVDVSHEDPEVKFNWYVDGVEVHNAKTKPREEQYNSTYRVVSVLTVLHQDWLNGKEYKCKVSNKALPAPIEKTISKAKGQPREPQVYTLPPSRDELPYIIPPYNQVSLTCLVKGFYPSDIAVEWESNGQPENNYKTTPPVLDSDGSFFLYSKLTVGADRWLEGNVFSCSVMHEALHNHYTQKSLSLSPG
light: B1 light
notes: mock mAb^2 with LALA
- Emax (pg/ml), IFN-γ release, human MLR (EC50 N/A) [3]: 3570 pg/mL
- EC50 [4]: 9.09 nM
- EC50 [5]: 6.25 nM

B4: G1/4420 (antibody, human IgG1, kappa)
heavy: not shown
light: DVVMTQTPLSLPVSLGDQASISCRSSQSLVHSNGNTYLRWYLQKPGQSPKVLIYKVSNRFSGVPDRFSGSGSGTDFTLKISRVEAEDLGVYFCSQSTHVPWTFGGGTKLEIKRTVAAPSVFIFPPSDEQLKSGTASVVCLLNNFYPREAKVQWKVDNALQSGNSQESVTEQDSKDSTYSLSSTLTLSKADYEKHKVYACEVTHQGLSSPVTKSFNRGEC
- binding result (FcgRIIB on CHO cells): binds
- binding result [6]: binds
- binding result [7]: binds
- binding result [8]: binds

B5: G1/929_01_A02 (antibody, IgG1, V domains shown)
VH: B2 VH with N55S, N57G
VL: DIQMTQSPSTLSASVRDRVIITCRASQSIGNRLAWYQHKPGKAPKLLIYEASTSETGVPSRFSGSGSGTDFTLTISSLQPEDFATYYCQQSYSTPYTFGQGTKLEIK
notes: IgG1 without LALA
- fold lower affinity than G1-AA/E12v2 (hPD-L1-rCD4-His [9]): > 10 fold
- fold lower affinity than G1-AA/E12v2 (Cyno PD-L1-rCD4-His): > 10 fold

B6: G1/929_01_A11 (antibody, IgG1, V domains shown)
VH: B2 VH with N55S, N57G
VL: DIQMTQSPSTLSASVGDRVTITCRASQSISGRLAWYQQKPGKAPNLLIYEASNLESGVPSRFSGSGSGTEFTLTISSLQPEDFATYYCQQSYSWPRTFGQGTKVEIK
notes: IgG1 without LALA
- binding result (hPD-L1-rCD4-His [10]): binds
